± gives the standard deviation.
Test: protein stability index of a GFP-peptide fusion (GPS, HEK-293T) (PSI 1-6); higher = more stable
Conditions: c terminus: a fixed tail appended
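Note: 24-mer peptide tiles fused after GFP, lentivirally expressed, FACS-sorted into six equal bins by GFP/DsRed ratio, decoded by Illumina sequencing, PSI is the read-weighted mean bin number.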

| Sequence | protein stability index (treatment: DMSO) | protein stability index (treatment: MLN4924 1 uM, 8 h) |
| --- | --- | --- |
| KALGSDLDSSLASLVGNLGISGTT [SNAP91] | 3.94 ± 0.2 | 3.93 ± 0.15 |
| KKVLNHGYDDDNHDYIVRSGERWL [DYRK1B] | 3.27 ± 0.39 | 3.55 ± 0.49 |
| ATRSIQVDGKTIKAQIWDTAGQER [RAB11A] | 4.28 ± 0.33 | 4.37 ± 0.19 |
| IKEAKEQHPDMSVTKVVVHKETEI [EPB41L3] | 5.23 ± 0.14 | 5.02 ± 0.21 |
| LIYASYFALIAVVFLASGAVSVMK [SLC19A2] | 2.95 ± 0.27 | 3.44 ± 0.43 |
| IYQQLSRYRGLGLLASVPSNPNGN [CRY1] | 2.4 ± 0.28 | 2.74 ± 0.29 |
| GQENDATSPHFSTRHEGSFQVPVL [CD69] | 3.68 ± 0.35 | 3.69 ± 0.14 |
| EQTYHAKLENARLSSEMNTSTVNS [LMNB1] | 4.88 ± 0.14 | 5.03 ± 0.19 |
| VLKTRFSYAFPKEFPYRMNHILEC [CCNC] | 2.59 ± 0.58 | 2.2 ± 0.24 |
| SEELLSLKYENDYPSVILRDPLQT [ETS1] | 4.05 ± 0.14 | 4.14 ± 0.13 |
| GRCLEVEMSKDANFGLRLVVQRCS [GALNT9] | 2.27 ± 0.15 | 2 ± 0.41 |
| FTTFRGTELSFLVTTHQPTNLVLP [EDNRA] | 2.84 ± 0.74 | 2.29 ± 0.37 |
| DLKTLSDDIKESLESEGKNSKKEE [ATE1] | 5.31 ± 0.54 | 5.32 ± 0.31 |
| LVWIRGPGFGCKAVRCASGRCTVR [SDE2] | 2.37 ± 0.87 | 2.36 ± 0.42 |
| NTFVRYLLKRIKKCCGMRNTDVSM [KCNK9] | 3.38 ± 0.59 | 3 ± 0.35 |
| LQASDRYRDLAGGTGRSAKEQVLR [FCHSD1] | 4.18 ± 0.24 | 4.29 ± 0.11 |
| KYLKVPQDPLKFYKKIYFCHSCQL [IQUB] | 2.24 ± 0.47 | 1.97 ± 0.2 |
| SDSGSDKSLEGGGTAFDAETDSEM [SMG5] | 5.54 ± 0.15 | 5.62 ± 0.19 |
| PGPASGPGPDTGPDSELSPCIPPG [SPAG8] | 5.4 ± 0.24 | 5.36 ± 0.24 |
| MEGTPTIKSKKKLLQIIDTTLLKC [VPS39] | 2.25 ± 0.24 | 2.36 ± 0.25 |
| KRQVPTEQAQAYAERLGVTFFEVS [RAB40B] | 2.99 ± 0.22 | 3.23 ± 0.23 |
| SEGACEKEKQSRDFQGRILSVDPE [RHOBTB1] | 5.22 ± 0.42 | 5.12 ± 0.35 |

| Sequence | protein stability index (treatment: DMSO) | protein stability index (treatment: MLN4924 1 uM, 8 h) |
| --- | --- | --- |
| PPSARHRAHPPQRPASSGGAHTLV [KCNA3] | 4.06 ± 0.42 | 4.1 ± 0.45 |
| DPKKLLTQYFVQENYLEYRQVPGS [MAGEA6] | 3.12 ± 0.1 | 3 ± 0.39 |
| AMDNHSDSEEELAAFCPQLDDSTV [RETREG3] | 5.34 ± 0.23 | 5.4 ± 0.14 |
| KLKLTNNHLDPFGHIILNSMHKYQ [TBX5] | 2.26 ± 0.37 | 2.34 ± 0.25 |
| MGGAVSAGEDNDELIDNLKEAQYI [PCMTD2] | 5.1 ± 0.15 | 4.95 ± 0.21 |
| DSISLHQPCNPPAPAGDKGFQPPS [DMRTC1] | 5 ± 0.27 | 5 ± 0.16 |
| RRPRTAFTQNQIEVLENVFRVNCY [HESX1] | 2.39 ± 0.15 | 2.53 ± 0.24 |
| SEQESLLQQAQAQFRMAQEEARRN [SMG5] | 5.19 ± 0.2 | 5.14 ± 0.31 |
| SLRDSGYFYDPIERDIEIGFLPWL [RSPH3] | 2.28 ± 0.49 | 2.37 ± 0.47 |
| TLLKKISEASKAFQMEKIEHGYEN [TRIM55] | 2.3 ± 0.26 | 2.4 ± 0.15 |
| PPTTPQNEEIRAVGRLKRERSMSE [MFF] | 4.82 ± 0.28 | 5.05 ± 0.14 |
| DRDSIWKCLKFLGSRHPTLVLPLV [INTS4] | 2.15 ± 0.24 | 2.15 ± 0.22 |
| KFLPSSEEDNDDAKILPSPVQGSS [DRICH1] | 5.21 ± 0.25 | 5.47 ± 0.17 |
| YLRPQSNYSSSQDALISVSYTIIT [OR10K2] | 2.73 ± 0.7 | 2.68 ± 0.99 |
| RSANGFPYREDEEGAFGEHGSQGT [MAP2] | 5.38 ± 0.25 | 5.41 ± 0.2 |
| CLKKFNARRKLKGAILTTMLATRN [CAMK2A] | 3.21 ± 0.15 | 3.32 ± 0.34 |
| LILELVSGGELFDFLAEKESLTED [DAPK3] | 1.94 ± 0.18 | 2.49 ± 0.43 |
| RKFSRECEDQKQIKKPESFSKQIV [NEUROD6] | 4.43 ± 0.27 | 4.21 ± 0.43 |
| ASRVSKVNDKRRKKSGEKEQHISK [KMT2E] | 4.69 ± 0.39 | 4.45 ± 0.38 |
| QAPPQDSSNKKEKKVLNHGYDDDN [DYRK1B] | 5.61 ± 0.16 | 5.51 ± 0.11 |
| SSITRQKKRLQELALALKKCKPSL [TMEM120A] | 2.39 ± 0.41 | 2.81 ± 0.39 |
| VRVLDMVAKLESECLKRQGQREPG [FBXO34] | 4.06 ± 0.29 | 4.17 ± 0.31 |

| Sequence | protein stability index (treatment: DMSO) | protein stability index (treatment: MLN4924 1 uM, 8 h) |
| --- | --- | --- |
| LYAFFTRTHGDMHSLVRSRHRIPE [TRIB3] | 2.18 ± 0.046 | 2.26 ± 0.45 |
| PADIQAQFAISRELIRNIYNSFHK [SNX8] | 2.04 ± 0.29 | 2.24 ± 0.3 |
| SVAHLPWRMLTYKALNTFIDDLFA [CLPTM1] | 2.46 ± 0.25 | 2.28 ± 0.37 |
| FGRKDHLTRHTKKTHSQELMKESL [PLAGL1] | 3.53 ± 0.2 | 3.77 ± 0.26 |
| AAVVHHFESFPAGSTLIFYKYCDH [TOR1AIP2] | 2.37 ± 0.43 | 2.23 ± 0.52 |
| HKIKHKHILAKNYFSQVPVLASFI [IQUB] | 2.34 ± 0.37 | 2.32 ± 0.55 |
| EGIRQTEYTLTGLKFDMKYMNFRV [FSD1] | 2.67 ± 0.54 | 2.56 ± 0.52 |
| RVTVSRASSSRSVRTTRGKRKRVD [LMNB1] | 4.46 ± 0.2 | 4.34 ± 0.1 |
| LDDLSQKLKPLGEAEREFILNLKK [NLN] | 3.36 ± 0.44 | 3.07 ± 0.22 |
| GHLCAAEVVKIRDSFSNQNTETKD [DLC1] | 4.18 ± 0.063 | 4.14 ± 0.22 |
| NLQSLINNEIPDCYTFSVLITFDN [MCOLN1] | 2.93 ± 0.22 | 3.23 ± 0.74 |
| KKKYMPYNHQHKYFFLIGPPALLP [FADS1] | 3.14 ± 0.67 | 1.76 ± 0.053 |
| RAINLLFDIARIERCNQLLRALKL [ZER1] | 1.82 ± 0.16 | 2.08 ± 0.32 |
| VFFVCFVPYHIARIPYTKSQTEAH [P2RY14] | 3.57 ± 0.74 | 3.17 ± 0.35 |
| QDHFHVFVGDLSPEITTEDIKAAF [TIA1] | 2.73 ± 0.54 | 3 ± 0.33 |
| APTADDDDDDHDDHEDNDKMNDSE [NOL4L] | 5.53 ± 0.2 | 5.54 ± 0.28 |
| WLHALHLRQKGNRNTHKDLLRFAQ [FEM1B] | 2.44 ± 0.52 | 2.35 ± 0.15 |
| NGDLSRSLSPSPLGSSAASTALER [FCHO1] | 4.78 ± 0.22 | 4.83 ± 0.37 |
| CQMFLGKTEAEIAHIALETLEGHQ [FLOT1] | 3.36 ± 0.43 | 3.37 ± 0.13 |
| LEPSTPYRFLLYGLHEGKRLGPLS [TNXB] | 2.44 ± 0.3 | 2.46 ± 0.15 |
| LRRVLDELTLARTDLEMQIEGLKE [KRT16] | 2.9 ± 0.52 | 3.07 ± 0.14 |
